Here are results for three molecules from article PMC12605379, “Monomeric Glycine oxidase from Azotobacter vinelandii for Glycine biosensing” (World Journal of Microbiology & Biotechnology, 2025).

In data set [1] the target is T1, AviGO (glycine oxidase from A. vinelandii) (Azotobacter vinelandii, UniProt C1DPI5).
T1 construct: gene thiO; codon-optimised synthetic gene in pCold I (NdeI/XbaI), expressed in E. coli BL21(DE3); HisTrap then Q-Sepharose, vector His tag, no cleavage told
T1 sequence (C1DPI5 1-363): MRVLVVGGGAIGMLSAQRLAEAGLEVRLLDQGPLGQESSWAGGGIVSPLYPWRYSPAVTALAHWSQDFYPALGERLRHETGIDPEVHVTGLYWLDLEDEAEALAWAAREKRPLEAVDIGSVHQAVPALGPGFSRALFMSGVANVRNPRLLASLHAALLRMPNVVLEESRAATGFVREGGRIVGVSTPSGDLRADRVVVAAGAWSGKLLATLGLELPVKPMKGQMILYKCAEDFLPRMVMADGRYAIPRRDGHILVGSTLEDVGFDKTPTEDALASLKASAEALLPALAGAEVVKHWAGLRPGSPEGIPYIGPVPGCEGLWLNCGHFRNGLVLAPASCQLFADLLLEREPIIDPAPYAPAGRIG
Nature of the data set: UV-visible spectroscopy of the purified enzyme. The class given is binding. The conditions noted are these: copurified cofactor; occupancy, no affinity constant. The procedure:
UV-visible spectroscopy of the purified enzyme on AviGO (glycine oxidase from A. vinelandii) | The FAD/AviGO ratio was calculated from UV-visible spectroscopy of the purified enzyme

The target of data set [2] is T1, AviGO (glycine oxidase from A. vinelandii). In words: HRP-coupled H2O2 assay (4-aminoantipyrine / N,N-diethylaniline, […] nm), substrate inhibition model. The class given is biochemical. The conditions noted are these: substrate inhibition constant; 100 mM Tris-HCl pH 8.5, free enzyme 20 nM.
Substrate in data set [3]: NCC(=O)O
Nature of the data set: purified protein. The data set is classed as biochemical, Azotobacter vinelandii. The following applies: 100 mM Tris-HCl pH 8.5, free enzyme 20 nM, 0.5-100 mM substrate, abstract prints Km 4.65.

Substrate in data set [4]: CNCC(=O)O
In words: purified protein. The data set is classed as biochemical, Azotobacter vinelandii. The following applies: 100 mM Tris-HCl pH 8.5, free enzyme 20 nM, 0.5-100 mM substrate.

As for `Cc1cc2nc3c(=O)[nH]c(=O)nc-3n(C[C@H](O)[C@H](O)[C@H](O)COP(=O)(O)OP(=O)(O)OC[C@H]3O[C@@H](n4cnc5c(N)ncnc54)[C@H](O)[C@@H]3O)c2cc1C` [FAD], the FAD/AviGO ratio in data set [1] is 0.38.

As to `NCC(=O)O` [glycine], in data set [2], the “Glycine / ksi” value is on record as 23.00 ± 3.71 mM.

B1: AviGO (glycine oxidase from A. vinelandii) (Azotobacter vinelandii DJ) (protein)
chain: T1 sequence (C1DPI5 1-363)
notes: codon-optimised synthetic gene in pCold I (NdeI/XbaI), expressed in E. coli BL21(DE3); HisTrap then Q-Sepharose, vector His tag, no cleavage told
As for B1, in data set [3], the Km (as a rule, the substrate concentration at which the rate is half of its maximum) is listed as 4.76 ± 0.83 mM and the kcat (commonly the maximal rate divided by the concentration of active sites) was found to be 0.38 ± 0.03 s⁻¹. In addition, in data set [4], the Km is reported as 11.09 ± 0.75 mM and the kcat came to 0.62 ± 0.01 s⁻¹.
